Laboratory results published in US9359634B2, “Fast reaction kinetics of enzymes having low activity in dry chemistry layers” (Roche Diabetes Care, Inc., priority 2009, dated 2016).
Read-outs that look alike come from different tables or passages of the source.

How the values were obtained:
Type in all cases: biochemical
[1] = tested on: glucose dehydrogenase from Bacillus subtilis; assay: Enzyme activity before and after temperature stress (stress test) of clones; conditions: stress test: 30 min at 50° C.; tested in Escherichia coli XL1blue MRF′
Description: The PCR product obtained was transformed into Escherichia coli XL1blue MRF′. The cells were plated out, clones containing plasmid were cultured overnight and the enzyme activity was determined before and after temperature stress (stress test: 30 min at 50° C.).

[2] = tested on: glucose dehydrogenase from Bacillus subtilis; conditions: for activity, U/mg enzyme / activity, U/mg lyophilisate: cuvette, 25° C., 340 nm; for % U/mg lyophilisate relative to NAD: coenzyme carbaNAD relative to NAD; for activity with carbaNAD compared with activity with NAD: standardized conditions in a cuvette
[3] = biological target: T1, glucose dehydrogenase from Bacillus subtilis (Bacillus subtilis, UniProt P12310, A229V/A236S/Q252K); conditions: enzyme used in the test strips; coenzyme NAD
[4] = biological target: T1, glucose dehydrogenase from Bacillus subtilis; conditions: test strips, coenzyme NAD, blood with adjusted glucose values; 1556.2 to 25.10 kU/100 g mass
[5] = biological target: T2, glucose dehydrogenase from Bacillus subtilis (Bacillus subtilis, UniProt P12310, A229V/A236S/E170K/Q252L); conditions: enzyme used in the test strips; coenzyme carbaNAD
[6] = biological target: T2, glucose dehydrogenase from Bacillus subtilis; conditions: test strips, coenzyme carbaNAD, 4.60 kU/100 g mass; versus all wild type/NAD formulations of table 3

| Molecule | residual activity after stress (%) [1] | Vmax (U/mg lyophilsate) [2] | Km ([2]; coenzyme NAD) | activity, U/mg enzyme ([2]; coenzyme NAD) | activity, U/mg lyophilisate ([2]; coenzyme NAD) | Km ([2]; coenzyme carbaNAD) | Vmax (U/mg lyophilisate) ([2]; coenzyme carbaNAD) | % U/mg lyophilisate relative to NAD [2] | activity, U/mg enzyme ([2]; coenzyme carbaNAD) | activity, U/mg lyophilisate ([2]; coenzyme carbaNAD) | activity with carbaNAD compared with activity with NAD [2] | lyophilisate activity (U/mg) [3] | kinetics of the conversion of glucose [4] | lyophilisate activity (U/mg) [5] | kinetics of the conversion of glucose [6] |
| --- | --- | --- | --- | --- | --- | --- | --- | --- | --- | --- | --- | --- | --- | --- | --- |
| WT-GlucDH: wild type (native) glucose dehydrogenase from Bacillus subtilis (protein, listed as Bacillus subtilis) MYPDLKGKVVAITGAASGLGKAMAIRFGKEQAKVVINYYSNKQDPNEVKEEVIKAGGEAVVVQGDVTKEEDVKNIVQTAIKEFGTLDIMINNAGLENPVPSHEMPLKDWDKVIGTNLTGAFLGSREAIKYFVENDIKGNVINMSSVHEVIPWPLFVHYAASKGGIKLMTETLALEYAPKGIRVNNIGPGAINTPINAEKFADPKQKADVESMIPMGYIGEPEEIAAVAVWLASKESSYVTGITLFADGGMTKYPSFQAGRG | 23% | 122 | 80 µM | 484 U/mg enzyme | 203 U/mg lyophilisate | 300 µM | 3 U/mg lyophilisate | 1.7% | 8.2 U/mg enzyme | 3.4 U/mg lyophilisate | two orders of magnitude lower | 251 U/mg | worsened with a decreasing enzyme content |  |  |
| GlucDH_E170K (protein, UniProt P12310 1-261, looked up, variant E170K) Glucose 1-dehydrogenase: MYPDLKGKVVAITGAASGLGKAMAIRFGKEQAKVVINYYSNKQDPNEVKEEVIKAGGEAVVVQGDVTKEEDVKNIVQTAIKEFGTLDIMINNAGLENPVPSHEMPLKDWDKVIGTNLTGAFLGSREAIKYFVENDIKGNVINMSSVHEVIPWPLFVHYAASKGGIKLMTKTLALEYAPKGIRVNNIGPGAINTPINAEKFADPKQKADVESMIPMGYIGEPEEIAAVAAWLASKEASYVTGITLFADGGMTQYPSFQAGRG | 80% |  |  |  |  |  |  |  |  |  |  |  |  |  |  |
| GlucDH_E170K_K252L (protein, Mutant of glucose dehydrogenase from Bacillus subtilis) MYPDLKGKVVAITGAASGLGKAMAIRFGKEQAKVVINYYSNKQDPNEVKEEVIKAGGEAVVVQGDVTKEEDVKNIVQTAIKEFGTLDIMINNAGLENPVPSHEMPLKDWDKVIGTNLTGAFLGSREAIKYFVENDIKGNVINMSSVHEVIPWPLFVHYAASKGGIKLMTKTLALEYAPKGIRVNNIGPGAINTPINAEKFADPKQKADVESMIPMGYIGEPEEIAAVAVWLASKESSYVTGITLFADGGMTLYPSFQAGRG | 130% | 144 | 70 µM | 270 U/mg enzyme | 167 U/mg lyophilisate | 1400 µM | 13 U/mg lyophilisate | 1.4% | 3.7 U/mg enzyme | 2.3 U/mg lyophilisate | about two orders of magnitude lower |  |  | 2.3 U/mg | better kinetics |
